Assay [1] has as its target T1, human BMPR1B coated on MSD plates (construct not stated) (human, UniProt O00238 14-126, limits assumed).
T1 construct: also called BMPR1B receptor
T1 sequence: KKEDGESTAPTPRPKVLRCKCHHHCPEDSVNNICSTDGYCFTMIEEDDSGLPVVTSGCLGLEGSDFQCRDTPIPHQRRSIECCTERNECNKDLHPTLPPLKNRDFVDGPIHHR
Put plainly: MSD ELISA, BMP2 blocked. Also on record: concentration or dose not given beside the values. On the technique in general: In an ELISA, binding on a coated surface is turned into a signal by an enzyme label.

Assay [2] has as its target T2, cynomolgus BMPR1B overexpressed on the surface of HEK293T cells (N-terminal Asp-Lys epitope tag, … (cynomolgus)).
T2 construct: whole, on cells
Briefly: flow cytometry.

In assay [3] the target is T3, human BMPR1B overexpressed on the surface of HEK293T cells (N-terminal Asp-Lys epitope tag, … (human, UniProt O00238 14-502)).
T3 construct: also called HEK293T cells overexpressing hBMPR1B; BMPR1B-expressing HEK293T cells
Put plainly: flow cytometry. In general terms: In flow cytometry, cells or beads pass a laser one at a time.

For assay [4], the target named is T4, hBMPR1B-His (human BMPR1B extracellular domain, residues K14 to R126, with C-terminal 9x-Histidine tag) (human, UniProt O00238 14-126).
T4 construct: Residues K14-R126 are counted on the hBMPR1B ORF (NM_001203); The IgK signal peptide of the vector is left out; also called hBMPR1B-CHis; human BMPR1B-his
T4 sequence: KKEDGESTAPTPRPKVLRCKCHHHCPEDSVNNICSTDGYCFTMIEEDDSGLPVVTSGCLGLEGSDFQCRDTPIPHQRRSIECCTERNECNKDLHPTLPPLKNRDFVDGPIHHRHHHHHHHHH
Briefly: Biacore. For orientation: In SPR one partner is held on a chip, and binding of the other changes the refractive index at the surface.

The next assay has as its target T5, Cyno-his (cynomolgus).
T5 construct: extracellular domain; soluble analyte of the Biacore runs; also called cSCRx91-his; cBMPR1B-CHis
Put plainly: Biacore.

In a further assay the target is T6, rat-his.
T6 construct: soluble analyte of the Biacore runs; also called rSCRx91-his; rBMPR1B-CHis
T6 chain: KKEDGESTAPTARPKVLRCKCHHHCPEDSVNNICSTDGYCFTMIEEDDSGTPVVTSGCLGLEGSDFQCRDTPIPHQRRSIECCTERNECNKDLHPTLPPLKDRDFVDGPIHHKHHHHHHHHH
Briefly: Biacore.

For assay [5], the target named is T2, cynomolgus BMPR1B overexpressed on the …. Put plainly: cell-based or functional assay.
In assay [6] the target is T7, rat BMPR1B overexpressed on the surface of HEK293T cells (N-terminal Asp-Lys epitope tag, … (rat, UniProt A0A8I6A0G0 62-550)). Put plainly: cell-based or functional assay.
Assay [7] has as its target T3, human BMPR1B overexpressed on the …. Briefly: cell-based or functional assay.
For assay [8], the target named is T1, human BMPR1B coated on MSD plates …. Briefly: MSD ELISA, BMP4 blocked. Also on record: concentration or dose not given beside the values.
For assay [9], the target named is T7, rat BMPR1B overexpressed on the surface …. Briefly: flow cytometry.

Where only a bound is given, the exact number is not on record here.

T7 sequence (chain, as listed by the source): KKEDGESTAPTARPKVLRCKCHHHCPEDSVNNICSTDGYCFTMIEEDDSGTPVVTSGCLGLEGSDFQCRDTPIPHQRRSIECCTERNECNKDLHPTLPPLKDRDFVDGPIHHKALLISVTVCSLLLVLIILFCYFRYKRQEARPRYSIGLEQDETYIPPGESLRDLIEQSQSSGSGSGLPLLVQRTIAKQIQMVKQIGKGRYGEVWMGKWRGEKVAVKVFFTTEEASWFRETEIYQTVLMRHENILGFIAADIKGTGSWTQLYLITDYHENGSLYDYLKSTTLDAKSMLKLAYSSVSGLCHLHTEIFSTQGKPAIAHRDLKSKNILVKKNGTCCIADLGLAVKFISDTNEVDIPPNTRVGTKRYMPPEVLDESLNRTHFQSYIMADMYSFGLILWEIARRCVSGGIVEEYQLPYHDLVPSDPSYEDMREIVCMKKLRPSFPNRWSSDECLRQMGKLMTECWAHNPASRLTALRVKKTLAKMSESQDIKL

B1: SC91.160 (antibody, V domains shown)
VH: QIQLVQSGPELKKPGETVKISCKASGYTFTTYGMNWVKQAPGKGLKWMGWINTYSGVPSSADDFKGRFAFSLETSASTAYLLINNLKNEDTATYFCARSELRNWYFDVWGTGTTVTVSS
VL: SFVMTQTPKFLLVSAGDRVTITCKASQNMGHDVAWYQQKPGQSPKLLIYSASNRYTGVPDRFTGSGYGTDFTFTISTVQAEDLAVYFCQQDYSSPFTFGSGTKLEMK
In general, % inhibition refers to the change of the read-out against control, counted positive when it falls. In general, Kd refers to the equilibrium constant for the complex coming apart. On to B1, for which the “% inhibition” value turned out to be 47% in [1] and 79% in [8]. The results for the gMFI in [2] and in assay [3] were 15800 and 27000, respectively. For the same molecule, the Kd was found to be 3.12 nM in [4] and 38.8 nM in the assay with Cyno-his. Moreover, the binding result with rat-his is on record as “binds”. In addition, the entries for the “% live, Fab-saporin, 250pM” value in assay [5], in assay [6] and in [7] were 34.6%, 77.9% and 24.3%, respectively.

B2: SC91.111 (antibody, V domains shown)
VH: QIQLVQSGPELKKPGETVKISCKASGYTLTTYGMNWVKQAPGKGLKWMGWINTYSGVPAYADDFKGRFAFSLETSASTAYLQINNFKNEDTATYFCARSELRNWYFDVWGTGTTVTVSS
VL: SFVMTQTPKFLLVSAGDRVTITCKASQNMGHNVAWYQQKPGQSPKLLIYYASNRYTGVPDRFTGSGYGTDFTFTISTVQAEDLAVYFCQQDYSSPFTFGSGTKLEIK
notes: copies: 2 + 2
On to B2, for which the entries for the “% inhibition” value in assay [1] and in assay [8] were 36% and 69%, respectively. The gMFI in assay [2] was 9120; in [9] it was 3810; in [3], 25200. The same molecule displayed a Kd in [4] of 6.67 nM. For the same molecule, the “% live, Fab-saporin, 250pM” value in assay [5] was 52.9%; in assay [6], 87.1%; in assay [7], 20.3%.

B3: SC91.155 (antibody, V domains shown)
VH: QIQLVQSGPELKKPGETVKISCKASGYTFTTYGMNWVKQAPGKGLKWMGWINSYSGVPAYADDFKGRFAFSLETFASTAYLQINNLRDEDTATYFCARSELRNWYFDVWGTGTTVTVSS
VL: SFVMTQTPKFLLVSAGDRVTITCKASQNLGNDVAWYQQKPGQSPRLLIYFASNRYTGVPDRFTGSGYGTDFTFTISTVQAEDLAVYFCQQDYSSPFTFGSGTKLEIK
Take B3: the “% inhibition” value in [1] was 49%; in assay [8], 79%. The values for the gMFI in assay [2], in [9] and in assay [3] were 14600, 7690 and 25300, respectively. Moreover, in assay [4], the Kd is 1.12 nM. For the same molecule, the binding result in the assay with rat-his was “binds”. Moreover, the figures for the “% live, Fab-saporin, 250pM” value in assay [5], in assay [6] and in assay [7] were 45.1%, 81.1% and 29.3%, respectively.

B4: SC91.119 (antibody, V domains shown)
VH: QVTLKESGPGILQPSQTLSLTCSFSGLSLSTPGMSVGWIRQPSGKGLEWLAHIWWNDDKSYNPALKSRLTISKDTSNNQVFLKIASVVTADTATYYCARGDRFAYWGQGTLVTVSA
VL: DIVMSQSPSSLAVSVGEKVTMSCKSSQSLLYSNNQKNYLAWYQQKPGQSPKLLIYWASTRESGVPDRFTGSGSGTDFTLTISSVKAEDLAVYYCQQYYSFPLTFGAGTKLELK
As for B4, the entries for the “% inhibition” value in assay [1] and in [8] were 35% and 65%, respectively. The results for the gMFI in assay [2], in assay [9] and in assay [3] were 11500, 7510 and 17300, respectively. In addition, the Kd in assay [4] turned out to be 6.44 nM; with Cyno-his, 5.52 nM; in the assay with rat-his, 5.35 nM. In addition, the “% live, Fab-saporin, 250pM” value was 34.7% in assay [5], 40.8% in assay [6] and 24.9% in assay [7].

B5: SC91.129 (antibody, V domains shown)
VH: QVQLQQPGAELVKPGASVKLSCKASGYTFTNYWMQWVKQRPGQGLEWIGEIDPSDRYTLYNQKFKDKATLTVDTSSSTAYMQLSSLTSEDSAVYYCARFGYYVDYWGQGTTLTVSS
VL: DAVMTQSPLSLPVSLGDQASISCRSSQSLVHSTGNTYLHWYLQKPGQSPKLLIYKVSNRFSGVPDRFSGSGSGTDFTLKISRVEAEDLGVYFCSQTTHVPFTFGSGTKLEIK
notes: copies: 2 + 2
Take B5: the “% inhibition” value in assay [1] amounted to 40%; in assay [8] it was 83%. The gMFI in [2] was determined as 16000; in [9], 10200; in assay [3] it was 26900. The Kd in assay [4] was found to be 0.564 nM; with Cyno-his, 1.62 nM; with rat-his, 0.561 nM. The “% live, Fab-saporin, 250pM” value in [5] was 18.5%; in [6], 39.2%; in assay [7], 23.1%.

B6: SC91.172 (antibody, V domains shown)
VH: QVQLQQPGADLVKPGTSVKLSCKASGYTFTSYWMQWVKQRPGQGLEWIGEIDPSDTYTMYNQKFKGKATLTVDTSSSTAYMQLSSLTSEDSAVYYCARFGYYVDYWGQGTTLTVSS
VL: DVVMTQTPLSLPVSLGDQASISCRSSQSLVHSTGNTYLHWYLQKAGQSPKLLIYKVSNRFSGVPDRFSGSGSGTDFTLKISRVEAEDLGVYFCSQSTHVPFTFGSGTKLEIK
As to B6, the results for the “% inhibition” value in [1] and in assay [8] were 51% and 81%, respectively. Besides, the gMFI in [2] was 15000; in assay [9] it was 9510; in [3] it was 24000. In addition, the Kd turned out to be 1.96 nM in [4], 4.47 nM in the assay with Cyno-his and 1.18 nM with rat-his. For the same molecule, the “% live, Fab-saporin, 250pM” value came to 18% in assay [5], 34.1% in assay [6] and 19.6% in assay [7].

B7: SC91.187 (antibody, V domains shown)
VH: QVQLQQPGPEFVKPGASVKLSCKASGYTFTSYWVQWVKQRPGQGLEWIGEIDPSDNYTLYNQNFKGKATLTVDTSSSTAYMQLSSLTSEDSAVYYCARFGFYVDYWGQGTTLTVSS
VL: DVVMTQTPLSLPVSLGEQASISCRSSQSLVHSTGNTYLHWYLQKPGQSPKLLIYKVSNRFSGVPDRFSGSGSGTDFTLKISRVEAEDLGVYFCSQSTHVPFTFGSGTKLEIK
As for B7, the “% inhibition” value in [1] came to 37%; in assay [8] it was 83%. The values for the gMFI in assay [2], in assay [9] and in assay [3] were 14800, 9680 and 25900, respectively. Besides, the equilibrium dissociation constant (Kd) came out at 2.86 nM in assay [4], 5.58 nM in the assay with Cyno-his and 3.25 nM with rat-his. Besides, the entries for the “% live, Fab-saporin, 250pM” value in [5], in assay [6] and in assay [7] were 24.2%, 36.7% and 19.1%, respectively.

B8: SC91.149 (antibody, V domains shown)
VH: QVQLLQPGAELVKPGSSVKVSCKASGYTFTNYWMQWVKQRPGQGLEWIGEIDPSDTYTLYNQKFKGKATLTVDTSSSTAYMQLSSLTSEDSAVYYCARFGYYVDYWGQGTTLTVSS
VL: DVVMTQTPLSLPVSLGDQASISCRSSQSLVHSTGNTYFHWYLQKPGQSPELLIYKVSNRFSGVPDRFRGSGSGTDFTLKISRVEAEDLGVYFCSQSTHVPFTFGSGTKLEIK
For B8, the “% inhibition” value in assay [1] came to 47%; in assay [8], 84%. For the same molecule, the gMFI came to 15400 in assay [2], 10600 in [9] and 27000 in [3]. Also, the Kd in assay [4] is 1.03 nM; in the assay with Cyno-his it was 2 nM; with rat-his it was < 0.1 nM. In addition, the “% live, Fab-saporin, 250pM” value in assay [5] came out at 20.7%; in [6], 29.1%; in assay [7] it was 18.3%.

B9: SC91.138 (antibody, V domains shown)
VH: QVQLQQPGAELVMPGASVKLSCKASGYTFTNYWMHWVKQRPGQGLEWIGEIDPSDVYTTYNQKFKDKATLTVDKSSSTAYMQLINLTSEDSAVYYCARSGWDYFDYWGQGTALTVSS
VL: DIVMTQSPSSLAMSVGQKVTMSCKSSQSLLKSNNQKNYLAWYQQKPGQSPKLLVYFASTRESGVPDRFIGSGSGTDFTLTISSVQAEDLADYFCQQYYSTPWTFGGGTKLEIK
In the case of B9, the “% inhibition” value is 10% in assay [1] and 79% in assay [8]. Moreover, the gMFI amounted to 16000 in assay [2], 9660 in assay [9] and 24500 in [3]. The Kd was determined as 0.658 nM in assay [4], 0.937 nM in the assay with Cyno-his and 1.84 nM in the assay with rat-his. Besides, the “% live, Fab-saporin, 250pM” value is 17.6% in [5], 37.3% in assay [6] and 21% in assay [7].

Source of the values: patent US20190153103A1 (AbbVie / Abbott, published 2019).
